Experimental data: the DeepSol protein solubility set

experiment: soluble on expression in E. coli; label from the status in PepcDB or PDB records

Sequence	soluble on expression in E. coli
MGSDKIHHHHHHMKIPRRLEPLLEDGLIDGVVRQLMSGKEAMVFAVRCGDEIRCAKVYKEANKRSFRQAVDYTENRKTKNSRQARAMAKGSKYGRQMQEAAWQSAEVDALYRLAAAGVRVPTPYNFHEGVLLMELVADADGNAAPRLNDVSFTEGEALAHHQTLIREVVRMLCAGVVHGDLSEFNILVGADGPVIIDLPQAVDAAGNNHAQAMLMRDVHNLRGYFGQFAPALLTTRYAEEIWALYEHGSLHPEVALSGQFECEMPPVDLEGVMREIDDAREQEAARLLRLQELS	not soluble
SIYQVAIKSLPQDWLWCETWCDDESKQRAKTIDLCNNPKTKEPKLEAAARIVPEWVTYDTEIRTLLDHLENKKKSANSVHDEL	soluble
MGSDKIHHHHHHMNVPFPKRDHGGGLDAAAAEYGGDLEAWLDLSTGINPNAYPVGQLPQDIWGRLPDEGAMARLLDAARSFWSVPDGVEVIAAAGASPLIARMPDMTAFSGAYIPVPTYNEYAAAFAARGRLNDPLNPQNPVHVYVHPNNPDGRMWPGSVIGGRPLTIIDESFCDTVPDKTHMARAAEPGVIILKSFGKFWGLAGLRLGFAIAAPETFARSSSSASLQELMGPWSVSGPALEIGARALQDHAWAEATRVRLGHDAARLDDMLLSAGAEIVGGTTLFRTYAWEQGAEVWQKRLAEHRIWSRIFPYSTNWMRLGLPATDEDWARLDAAL	not soluble
MAHHHHHHMNNSVTRKIEKQILEALKDKENDIDKEIRKYEILERKVYDENDEELEFIKNKRLEELKNKHKEKLTLLKKGHGTYKEVLSEKEFFEICKSSKNVCCHFYRNTTWRCQYMDKKLIDLSSKYWNINFIKINAEKSPFLCERLKIWCIPTVMLIQNGKTEHSIVGFDELGGDNFSEQTLVNVLRKWRLIETKENDD	not soluble
MSSDRSGAAAKASAGQCSSDRPLAVAADPKQYSMALCPDTPSYSLCGRLKSEWDKQSAAASPGPAAYDVPGYFDTLDPQQQQRHLWSGPVPGVHLGIRTVLPESREKAGVPGPGAYQLVRFGDELPRAREPLITRSSRRGRGAAADTPGPGAYDDPTSIAYRADQVRRKRLFTQCSTFGGRWCRREFHTAGPGPAAYNTLVATKLLEKNQRHAPRLVRRQPPLDRQSVAEAAAARMKVSGPPNPQAFPTLPSDFDFDFRKGKTIGGKPHEPLARTAPSHLTQAADDKPSGSRAFWESPPPPGGRFAATPFDPQSHSLAAEKAGTNAARLAEAGNCKPGPGSYNVEVDPTARRVPASLFGRTLSAKSVSVENGVPGPGHYRVVDDTSGRGTIFYKGDFHPRGCSGQGGSAAESLGVGPGAHYNDDTMYSNSINGDRAHNKGFTMGIRYPARATYQHCAPYDETTNINCVYDDELNWVVRPNQHLPLIRRGKL	not soluble
MGSDKIHHHHHHMKHIGIIDVGSNSVRLLFAEITSKSSFKILTEFKEYVRLGSGFDSKGNITDNKIDSLISVLNLYKNFCNRFEDTEMVVTATEAFRRAKNQESIIQTVKNNLNLNIRVLSGEEEAYYDYFAAINTLDIKDGLIMDIGGSSTELILVANRTLKECVSLQFGAITLIEKFNIKDSIDEKQEKMLKDFLLESFSSIPWLKSISSTTLIGIGGSIRNIGKISKKQKDYPLNLIHNYIMPAKSAEDIYNDVKNKTLEQRKKIKGLSKDRADIFVGASLAVSMLVNILSINEIIICRNGLREGLLLSKLFHKKPIDNILDFSINNVLINNSINITHSFHVYKLTSLLFSSLQSVHKINISLDKVIKTASMFHNAGVNISYYYHHRHSAYIILNSSLYGISHKECVMSACIDIYQRSENIQSMLNEYGNMLEKEDIYAIKVIGILLRIAENLDKDLSGSIYDLKCIVDDAVVIIKTYSKEPSDFLISEAQNSSGLFKNTFNKSLYIV	not soluble
KTISLYKTKIPQDKTENVDAFLVTDSELISKLEKAKNKKEETKASGKSASARVAVQATQKKQSNEKQIVGYTTTSALSEDGKHIFKLGKLNSENYERKIIVGATVETLEQSTTLQSEEAIVLAAPGKYKDSDQKRVMITQGPNLIGVHANTKENEETKKFVNW	not soluble
MLAQLTISNFAIVRELEIDFHSGMTVITGETGAGKSIAIDALGLCLGGRAEADMVRTGAARADLCARFSLKDTPAALRWLEENQLEDGHECLLRRVISSDGRSRGFINGTAVPLSQLRELGQLLIQIHGQHAHQLLTKPEHQKFLLDGYANETSLLQEMTARYQLWHQSCRDLAHHQQLSQERAARAELLQYQLKELNEFNPQPGEFEQIDEEYKRLANSGQLLTTSQNALALMADGEDANLQSQLYTAKQLVSELIGMDSKLSGVLDMLEEATIQIVEASDELRHYCDRLDLDPNRLFELEQRISKQISLARKHHVSPETLPQYYQSLLEEQQQLDDQADSQETLALAVTKHHQQALETARALHQQRQHYAEELAQLITDSMHALSMPHGQFTIDVKFDEHHLGADGADRIEFRVTTNPGQPMQPIAKVASGGELSRIALAIQVITARKMETPALIFDEVDVGISGPTAAVVGKLLRQLGESTQVMCVTHLPQVAGCGHQHYFVSKETDGAMTETHMQSLNKKTRLQELARLLGGSEVTRNTLANAKELLAA	not soluble
MHHHHHHSSGRENLYFQGTIDDLFIFKRKLGSGAFGDVHLVEERSSGLERVIKTINKDRSQVPMEQIEAEIEVLKSLDHPNIIKIFEVFEDYHNMYIVMETCEGGELLERIVSAQARGKALSEGYVAELMKQMMNALAYFHSQHVVHKDLKPENILFQDTSPHSPIKIIDFGLAELFKSDEHSTNAAGTALYMAPEVFKRDVTFKCDIWSAGVVMYFLLTGCLPFTGTSLEEVQQKATYKEPNYAVECRPLTPQAVDLLKQMLTKDPERRPSAAQVLHHEWFKQA	soluble
MSLSILFKNAALLDPLQADLMDAHHVLVEDNLIKEVSDRPLQVTADRTIDLRGKTLMPGLIDLHVHAVAVELNLAQQVHMPNVLVTLRSTLLLRGMLRRGFTTVRDAGGAGHALKQAIETGLTDGPRLFVSGRALSQTGGHGDMRARSDYLASDAPCPCCVRVGALARVADGVDGVRRAAREELQMGADQIKIMASGGVASPTDPVGAFGYSEDEIRAIVEEARGRQTYVLAHAYTAAAIARAVRCGVRTIEHGNLVDEPTARLMAEKGAYVVPTLVTYEALANEGAQYGLPPESVAKIADVRDAGLRSLAIYRDAGVKMGFGSDLLGPSQRLQSDEFRIRAEILGPRAVIASATVIGAEVLGMEGKLGRIAPEALADLLVVDGNPLRDVACLLGQGEHIPLVLKAGKVQFDRLNAEGHHHHHH	not soluble
ELLPEIFRQTVEHAPIAISITDLKANILYANRAFRTITGYGSEEVLGKNESILSNGTTPRLVYQALWGRLAQKKPWSGVLVNRRKDKTLYLAELTVAPVLNEAGETIYYLGMHRDTSELH	soluble
MGSDKIHHHHHHMLPRQPRSRTSADCSGFPARYGGWLALLLSRLSRSAGKEPGCERGARPRTAMRGSHGSISCIATGCLLSSSAMIWTISDLHLSFARPKPMDIFGPGWKDHPERIAQAWRERVAATDWVLIAGDISWAMKLPDALLDLQWIDALPGTKVLIRGNHDYWCPRRVNSIRRHLPPSLRLIGADALDIGEAVVCGTRGWITPETPGFTETDLPIYQRELGLLERALAAGQALAVNKPLIVMIHFPPFVNRQPTEFSRRIAASGAAACIYGHLHRRYDWDNAVQGRVDGVYYQLTACDYLGFGPVAVRGLNGWSGG	not soluble
MLEQLPYLALKTPPKTTALLKAECADFIVKEHLGYEMSGDGEFVALYVRKTDCNTLFVGEKLAKFAGVSERNMGYAGLKDRRAVTEQWFCLQMPGMETPDFSQFELDGVEILTVTRHNRKIRTGSLEGNYFDILLRGAEESDELKARLDFVANFGFPNYFTEQRFGRDGHNLTQALRWAQGEIKVKDRKKRSFYLSAARSEIFNLVVAARIEKSTINQVLPNDIVQLAGSHSWFKADEKEDLTALQVRLENQDILLTAPLIGEDILAASEIENEIVNQHSAFDPLMKQERMKAARRPLLMKAKGFSWAFEPEGLRLKFYLPAGSYATALVRELVNYTEE	soluble
MSLKWFNTLSHNRWLEQETDRIFNFGKNAVVPTGFGWLGNKGQIKEEMGTHLWITARMLHVYSVAASMGRPGAYDLVDHGIKAMNGALRDKKYGGWYACVNDQGVVDASKQGYQHFFALLGAASAVTTGHPEARKLLDYTIEVIEKYFWSEEEQMCLESWDEAFSQTEDYRGGNANMHAVEAFLIVYDVTHDKKWLDRALRIASVIIHDVARNGDYRVNEHFDSQWNPIRDYNKDNPAHRFRAYGGTPGHWIEWGRLMLHLHAALEARFETPPAWLLEDAKGLFHATIRDAWAPDGADGFVYSVDWDGKPIVRERVRWPIVEAMGTAYALYTLTDDSQYEEWYQKWWDYCIKYLMDYENGSWWQELDADNKVTTKVWDGKQDIYHLLHCLVIPRLPLAPGLAPAVAAGLLDINAKEGGSHHHHHH	soluble
MGSDKIHHHHHHMLRSMYSGISGLKNFQTKLDVVGNNIANVNTFGYKKGRVTFKDLVSQSVGSASGNGGGVGGANPKQVGLGASMATVDSVSNQGALQNTGRTLDVAISGEGFFQIQTADGIRYARSGNFYTDLDGNLVTGDGNYVIGSDNAGPLGQPTIPLGGGYKTINIPANAQNLSIGKDGLVTYVDPAGTLQQAGYISLANFPNPGGLEKSGSNMYSISQNSGQPTSATPSTNGLGQLTSGTLEMSNVDLSEEFTEMIIAQRGFQANTRIITTSDQILEELVNLKR	not soluble
QSELTQPRSVSGSPGQSVTISCTGTSRDVGGYNYVSWYQQHPGKAPKLIIHDVIERSSGVPDRFSGSKSGNTASLTISGLQAEDEADYYCWSFAGSYYVFGTGTDVTVLGQPKANPTVTLFPPSSEELQANKATLVCLISDFYPGAVTVAWKADGSPVKAGVETTKPSKQSNNKYAASSYLSLTPEQWKSHRSYSCQVTHEGNTVEKTVAPT	soluble
AHHHHHHGSKRVWLVIPDTNFLFIPGQFGVDIISELERILDVNYKIVIPNIVLEELKTILREGKLRGKDLIAARMALKLAERFPTIYVGDFMSKTTDELIYEFAISNDNVIVCTNDKQLRKRLREAGVPVVFLRQKKKLELEGMLG	soluble
MKSYLNLKEEVWDKETCSGCGACVSVCPTENIYFKQQSPVQFDCDECACIIVPTENGESPISAEFCKVTLYDVNCGACYNACPRTKERHIFNLEKVPGRVIENYKAKSTLETKNIQSGGVVTAILANAFDEDLIDGAIVMMEDKWTMDPKSYLATSKEDVLKTAGSRYNWNVPILEVLKEAVMVKKLNKIAVVGTPCVINAVYQMMATNNDLVEPFKKAIRLKISLFCFETFDYDKMLKKLKEVEVNPWDIKKMEIDKGKLIVSTIHGNVFNFKIDEMDEYVRKGCKVCRDFTGISSDISVGNVGTPEGYSTVLVRNKWGKGFFDRAVINGYVSVEGEASIDPVISLSKKKMERKDIEFLEHHHHHH	not soluble
MGSDKIHHHHHHMQDYYSTLIGWMIPISRAMEAHQIDLTTALKECNISQDVMTDQESRIAAEKFYNLIEYCNKKLGRHDFSILIAEQFHPGMFHALGYAMMSSNTLQDALDRIAHYKRVVSNTCQLVTYESNNQLVFEMNIFTYEGTNRPVLSLATVETFLATIIRFARELVTLDFSPEKICFAYQKPAHDVTYLEEFFNCDIEFNSDKNAIIFNFEQAQEKLMCGNPLITHSHEKMLDEFMARIDKNDLSHVIKNKIFDLLPLGAPSQIVIAEDLGMSLRNLQRKLQEQGTSYKEILESTRKKLAMDYIVQQHLSLSEIGYLVGFSSVGNFNRAFKRWTNQTPGEYRQSKKT	not soluble
MSLRTVLITGTTSGIGYALSELFAKKECHVILVSRNAMKLSAQKQKLENGNNRIDTITCDLEQTNAAEIIYKSIKQNGWQVDILVNNAGFNEAGLFSETDATCEQGMINLHINFVTDMMKLFIPEMIQNSHGHILNVGSTGSYIACPKDAVYAASKAYILHLSKAVHAELKGTGVTVTTLCPGSTRTEFAHKAKIEHTLLFKIFVMSPHKVALSGLRAMEKGKSVIIPGLYNKILVLCSRLLPYSFIGWMTKKMLEGHHHHHH	not soluble
